Data taken from the nanobody polyreactivity screen of Harvey et al. (2022).

Assay: yeast display, Sf9 membrane polyspecificity reagent, FACS + sequencing; frameworks hold sequencing errors
In short: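 After 36–48 hours of galactose induction, yeast (Saccharomyces cerevisiae BJ5465) displaying a synthetic nanobody library were stained at 4 °C for 1 hour with 10% biotinylated, detergent-solubilized Sf9 membrane reagent. Streptavidin microbeads enriched the stained cells before FACS sorting into low and high (top ~1%) gates on anti-HA and streptavidin fluorescence. Each clone's polyreactivity label reflects its gate of origin.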

Row | Sequence | polyreactivity (PSR sort gate)
1 | QGQLVESGGGLVQAGGSLRLSCAASGSTIPVNAMAWYRQAPGKERELVAAITWGDGSTSYADSVKGRFTISRDNAKNTVYLQMNSLKPEDTAVYYCNKDFIYGYDAASYRPEYDYWGQGTQVTVSS | low polyreactivity
2 | QGQLVESGGGLVQAGGSLRLSCAASVFTFAFYTMGWYRQATGKERELVAANTRSGGSTYYPDSVKGRFTISRDNAKNTVYLQRNSLKPEDTPVYYCAARGNTPRTRRYGYWGQGTQVTVSS | high polyreactivity
3 | QGQLVESGGGLVQAGGSLRLSCAAYGSIYRNYAMGSYRQAPGKEREFVAAITTRGGRTYYADSVKGRFTISRDNAKNPVYLQINSLKPEDTAVYYCAARSYSEYNYWGQGTLVTVSS | high polyreactivity
4 | QGQLVESGGGLVQAGGSLRLSCPASGRTFYGYAMGWYRQAPGKERELVAAITSSGGSTYYADSVKGRFTISRDHAKNTVYLQMNSLIPEDTAVYYCAAPSSRGQGRNFDYWGQGSQVTVSS | high polyreactivity
5 | QGQLVESGGGLVQAGGSLRLSSAASGSTFAHYAMGWYRQAPGKERELVAAISRGGGSTYYADSVKGRFTISRDNAKNTVYVQMNSLKPEDTAVYYCAADPRYRVTLGFDYWGQGTQVTVSS | high polyreactivity
6 | QGQLVESGGGLVQAGGSLSLSCAASRLTFYSNAMGWYRPAPGKEREMVAAISWIGASTYYADSVKGRFPISRDNAKNTVYLQMNSLKPEDTAVYYCAARAQARVFGWRFYYWGQGTQVTVSS | high polyreactivity
7 | QGQLVESGGRLVQAGGSLRVSCAASGLTFNYYAMRWYRPAPGKERELVASISRSGGSTYYADSVKGRFTISRDNAKNTVYLQMNSLKPVDTAVYYCAAYRRRTYAVNKEGGYWGQGTQVTVSS | high polyreactivity
8 | QGQLVESGRGLVQAGGSLRLSCAASGRIFYSYAMGWYRQAPGKERELVAAISSGGSTKYADSVKGRFTISRDNAKNTVYLQMNSLKPEDTAVYYCAARTYQKGGRYYYWGQGTQVTVSS | high polyreactivity
9 | QGQLVESRGGLVQAGGSLRLICAASGFIFFIKSMGWYRQAPGKERELVAAINWTGGSTYADSVKGRFTISRDNAKNTVYLQMNSLKPEDTAVYYCAADPWDIYRRLSQGDHDYWGQGTQVTVSS | low polyreactivity
10 | QGQLVETGGGLVQAGGSLRLSCAASGRSSVSMLMGWYRQPPGKERELVARITGSGGSTFYADSVKGRFTISRDNAKNTVYLQMNSLIPEDTAVYYCAAGYLWRGRYNYWGQGTQVTVSS | high polyreactivity
11 | QGQLVETGGGLVQAGGSLRLSCDASGSIFYSNRGSYRQAPGKESEFVSAISGSGVRTYYADSLKGRFTISRDNAKNTVYLQMNSLKPEDNEVYYCNAGRRQDYRYNYWGQGTQVTVSS | high polyreactivity
12 | QGQPVESGGGLVQAGGSLRLSCAASGLIFRWYAMGWNRQAPVQEREVVAAISWSGASTYYADSVKGRFTISRDTPKNTVYLQMNSLKPDDTAVYYCAADYGYYGAGSYFDRGDYWGQGTQVTVSS | high polyreactivity
13 | QGQRVESAGGLVQAGGSLRLSCAASGITFARNVMGWSRQAPGQERELVAAISRGDSTYYADSVKGRFTISRDNAKNTVYLQLNSLKPEDTAVYYCAAAVKHVAYHYNYWGQGTQVTVSS | high polyreactivity
14 | QGQRVESGGGLVQAGGSLRLSCAASGSIFSYNTMGWYRQAPGKEREFVATIDWRDGSTYYADSVKGRFTISRDNAKNTVYLQMNSLKPEDTAVYYCATYYIVVEDNYWGQGTQVTVSS | high polyreactivity
15 | QLKHEESRGGLVQAGGSLRLSCAASGSTIYTYVMGWYRQAPGNERELVAAISWSGSSTYYADSVKGRFTISRDNAKNTVYLHMNSLKPEDTAVYYCNADPSQHTSAGYSSYEYYYWGQGTQVTVSS | low polyreactivity
16 | QLQHVESGGGLVQAGGSLRLSCAASGRIFGVNAQGWYRQAPGKERELVAAITSGGSTYYADSVKGRFTISRDNAKNTVYLQMKSLKPEDTAVYYGAARYYYLLWYTLPTKYDYWGQGTQVTVSS | high polyreactivity
17 | QLQLEESGGGLVQAGGSLRISCDASGTIFGNYAMGWYRQAPGKERELVAAITGSGGRTYYADSVKGRFTISRDNAKNTVYLQMNSLKPEDTAVYYCAARSYGRWYYTLYNYWGQGTQVTVSS | high polyreactivity
18 | QLQLEESGGGLVQAGGSLRLSCAASVRTLRRNAMGWYRQAPGKEKELVAAITGSGGSTYYADSVKGRFTISRDNAKNTVYLQMNSLKPEDTAVYYCAARGPSRRRDGSDYWGQGTQVTVSS | high polyreactivity
19 | QLQLEESGGGLVQAGGSLRLSCAAYGNILGYNAMGWYRQAPGKERELVAAISDNADSTYYADSVKGRFTISRDNAKNTVYLQMNSLKPEDPAVYYCAADWVLRTWLFWYTKYDYWGQGTQVTVSS | low polyreactivity
20 | QLQLQESGGGLVQAGGSLRLSCAASGSISHYIFMGWYRKAPGKEREFVAGIGYGGTTNYADSVKGRFTISRDNAINNVYLQMNSLKPEDTAMYYCAAREATEFYLYYWGQGTQVTVSS | low polyreactivity
21 | QLQLQESGRGLVQAGGSLRLSCAASGNIVDADIMGWYRQAPGKERELVASITDGGSTNYADSVKGRFTISRDNAKNTVYLQMNSLKTEDTAVYYCAAIAYPVIPTYFDYDSEYFYWGQGTQVTVSS | low polyreactivity
22 | QLQLVDSGGGLVQAGGSLRLSCAASGSIFAQYAMGWYRQAPEKERELVADISGDGSTYYADSVKGRFTISRDNAKNTVYLQMNSLKPEDTAVYYCADRKLYGSPEHGYWGQGTQVTVSS | high polyreactivity

Row | Sequence | polyreactivity (PSR sort gate)
23 | QLQLVESAGGLVQAGGSLRLRCAASGSTFSSYAMGWYRQAPWKERELVADITSSGGSTYYADSVKGRFTISRDNAKNSVYLQMNSLTPEDTAVYYCAADDVIFWLYYYWGQGTQVTVSS | low polyreactivity
24 | QLQLVESCGGLVQAGGSLRLSCAASGSILLNNAMGWYRQAPGKERELVAAISLSGGGSTYYADSVKGRFTLSRDNAKNTVYLQMNSLIPEDTAVYYCNADDPYLYYDSYDYWGQGTQVTVSS | low polyreactivity
25 | QLQLVESGAGLVQAGGSLRLSCAASGNIFRKNAMGRSRQAPGKERELVAAISRRGGNSYYADSVKGRFTISRDNAKNTVYLQMNSLKPEDTAVYYCAADWSPTAASDYWGQGTQVTVSS | high polyreactivity
26 | QLQLVESGGGFVQAGGSLRLSCAASGSTFQIYTMGWYRQAPGKERELVAAITNGGGSTYYADSVKGRFTISRDKANNTVYLQMNSLKPEDTAVYYCAAEQRYPLIILYDYWGQGTQVTVSS | low polyreactivity
27 | QLQLVESGGGFVQAGGSLRLSCDASGSTFGNYTMGWYRQAPGKERELVAAISFSGGRTYYADSVKGRFTISRDNAKNTVYLQMNSLKPADTAVYYCAKRSYGYSAFIYNYWGQGTQVTVSS | high polyreactivity
28 | QLQLVESGGGLVLAAGSLRLSCAASGYTFKSYAMGCSRQAPGKERELVAAISNGGNTYYADSVKGRFTISRDNAKNTVYIQMNSLKPEDTAVYYCAARYGYYYSRYDHWGQGTQVTVSS | low polyreactivity
29 | QLQLVESGGGLVPAGGSLRLSCASSGSIFKTYAMGWSRQAPGKDRELVAAIRGSGGSTYYADSVKGRFTIARDYAKNTVYLQMKSLKPEDTAFYYCARVGTKYRTNFFNGNDDWGQGTQVTVSS | low polyreactivity
30 | QLQLVESGGGLVQAGCSLRLICAASGFTFYRNAMGWYRQAPGKEREFVAAISSSGGGTYYADSVKGRFTISRDNAKNTVYLQMNSLKPDDTAVYYCAAKYPQKTTVNSYGNSFYYWGQGTQVTVSS | high polyreactivity
31 | QLQLVESGGGLVQAGGSIRLSCAASGSIFYRYAKGWNRQAPGKESELVAAISSRGGSKYYADSVKARFTISRDNAKNTVYLQMNSLKPEDTAVYYCAARSGGSGGTYGYWGQGPQVTVSS | high polyreactivity
32 | QLQLVESGGGLVQAGGSLLLSCAASGITFPANAMGWYRQAPGKERELVAAITGRGGRTYYADSVKGRFTISRYYAKNTVYLQMISLKPEDTAVYYCNAYLWRVTQNYDYWGQGTQVTVSS | high polyreactivity
33 | QLQLVESGGGLVQAGGSLRITCAASGSTFLTYSMGWYRQAPGKESELVAGISYSTGSTYYADSVKGRFTISRDNAKYTVYLQMNSLKPEDTAVYYCAADEWDCLWYYYYFNYEYWGQGTQVTVSS | low polyreactivity
34 | QLQLVESGGGLVQAGGSLRLISAASGLTFADYAMGWYRQAPGKERELVAAISSNGGSTNYADSVKGRFTISRDNAKNTVYLQMNSLKPEDTAVYYCAARPRNNARFWDYNYWGQGTQVTVSS | high polyreactivity
35 | QLQLVESGGGLVQAGGSLRLSCAASGFIFDSYAMGWYRQAPGKERELVAAISWSGSSTYYADSVKGRFTISRDNAKNTVFLQMNSLKPEDTAVYYCGALVYPYWGGSMYYWGQGTQVTVSS | high polyreactivity
36 | QLQLVESGGGLVQAGGSLRLSCAASGFTFWGYTIGWYRPAPGKERQLVAGITLSGGSTYYADSVKGRFTISRDNAKNTVYLQMNSLKPEDTAVYYCAAKPYQVSSYDFSLRDYWGQGTQVTVSS | low polyreactivity
37 | QLQLVESGGGLVQAGGSLRLSCAASGLIFIYYAMGWYRQAPGKERELVASITNSGGSTYYADSVKGRFTISRDNAKNTVYLQMNSLKPEDTALYYCAADYKTIVQRYGYYYWGQGTQVTVSS | low polyreactivity
38 | QLQLVESGGGLVQAGGSLRLSCAASGLTFNTYAMGWSRQAPAKERELVAAITKGGGRTYYADSVKGRFTISRDNAKNTVYLQMNSLKPEDTAVYYCAVVSWYRYSRYENDYWGQGTQVTVSS | high polyreactivity
39 | QLQLVESGGGLVQAGGSLRLSCAASGLTFSYYAMGWYRQAPGKETELVSAISRGGTTNYADSVKGRFTISRDNAKNTVYLQMNSLKPEDTAVYYCAASYFRRGFYSIYEYDYWGQGTQVTVSS | low polyreactivity
40 | QLQLVESGGGLVQAGGSLRLSCAASGRIFGVYVMGLYRQAPGKERELVAAISWSGSHTYYADSVKGRFTISRDNAKNTVYLQMNSLKPEDTAVYYCNADSYPDYTGPGLDWYDYWGQGTQVTVSS | low polyreactivity
41 | QLQLVESGGGLVQAGGSLRLSCAASGRTFGYNVMGWYRQAPGKERELVAAISSSGGSTYYADSVKGRFTISRDNAKNTVYLQMNSLKPEDTAVYYCAAQVRYYQSGPMYYWGQGTQVTVSS | high polyreactivity
42 | QLQLVESGGGLVQAGGSLRLSCAASGRTFYRNGKGWYIQAPGKERELVATISSGGITNYADSVKGRFTISRDNAKNTVYLQMNSLKPEDTAVYYCNAKKAYYGRGMNYWGQGTQVTVSS | low polyreactivity
43 | QLQLVESGGGLVQAGGSLRLSCAASGRTFYSYAKGWSRPAPGTDRQFVAAISVRGVITYYADSVKGRFTISRDNAKNTVYLQMNSLKPEDTAVDYCAADWSGYYTFDYWGQGTQVTVSS | low polyreactivity
